Data: the domain aggregation screens of Martell et al. (2025)

Assay: soluble fraction after stress (log2 fold change); higher = more stays soluble; pooled small domains, quantitative proteomics
Conditions: stress: pH 4
How it was run: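 Aggregation propensity is estimated from the fold change in each domain's soluble amount after acid stress. Pooled small-domain libraries were stressed at pH 4, and higher log2 values mean more stayed soluble.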

Sequence	soluble fraction (log2)
HMGGNVYAYRLTASVKSGEQIPANKIEKVKMLSSDLPTNYVPDTVNVTAYKSKLDLQAGTILSTSLLYEN	0.247
HMRRLGTTEIAGILRREISQGILIAKERLPSERSLADTYGVARGTVRQALNLLAREGLVQIRRSSGAYVTF	-0.299
HMRQLISIYNNTIGADEIDQMRNILSNSGYKEGVDFAVQTADKKSVILVRRDLAGMIQEQLSGEGLPS	-0.18
HMPKETFLNLDEEKRQAIINVLLKNFSEQHISQVKVSAIVSGIGMSRGAFYKYFEDLEDAYRFTISYFSA	-0.0967
HMRLDHIFSVVERLKGVSLGAGDRLEVQKYEDLLTVYKSKNALSSEEAQTLNDILASLLKMMAKYD	-0.54
HMGIRQGKVTSTFVNVRSGASTANAKVGELHKGDVVSLIEKVANFWRIGPGQFVSADYIQVLAS	-0.0122
HMSDFEASDPALLREGMRVQHLNFGKGTVITIEGAGANKKASVAFDGVGTKQLMLRFARLKIIYE	-0.622
HMNEIALETAIEDVESFIQMQNRNLAFSIDEDTDRAVVTVRDSDSGDVIRQIPSEEVLALAERIQDLQQD	-0.485
HMLTDMSKIRKVLKLYGKGNSKLFISTYLSLSRNTVKKYISLFEVSGKTIEEILAKSDSELELLFSG	-0.0775
HMGQVFEGTFNRKANGKNSVTPAEGGEPVFIAERNSLHAMNGDLVKVSLLAKKKHQPREAQVIEILKRSD	0.338
HMKSQSIFNVKKGDTLSHIAVHVLKKNKQKVTPEAINKMVSNIAFRNKIKNPDLIFPGQKLVLEY	-0.0458
HMTKDEFLTTLRTLIQDMPPEDRRDVMNYYTEYFEDAGPEREQEVLRQLGSPEQVAREVLGG	-0.459
HMIETIQVPRAFNDWHEQADKTKSVFEVYAEIEASENEKLIAWVRNNQNEFAKIWLGALIPELE	-1.24
HMGTTLTKIPGIGENRARLLLRHFGSLRAVREADADALAAVKGMTRPAAEAIVRYFEQQDAEGRRD	0.336
HMKKGRIGSIIQYVREHPGVSSSEIITGLGLDISPATIRRDLTLLVAENKLSVEGQNKGTKYFVSPTYDMF	0.271
HMDDPQAELLARAVRRVALAAAERTRRNEYGGVYLGLFRQFGISSYRRTPPARLHEALEWLERWRGDLM	-0.378
HMNRKLKAKATREKIYKSAEKLFSQNDYNKVSVDAIVEAAGVAKGSFYVHFASKDALIAMLINDH	-0.012
HMISKWGELVDLAVQLDIIQKSGSWFSMGDERIGQGANSVKDYLIANPDIAEKVEAEVRENLWKLN	-0.351
HMETPSNTAGITHATSDGYIFKGESDIIGRNSFGFIVKHGSHNHIIPFDSLRGTKWEYLINKYT	-0.03
HMSSESIKTDKNVGVGSTLEELEKAYGSDYTLSGKMYRYYQDDNSKYMYFFILNDVVQYYGYGIDV	-1.38
HMKEPGFAPPVRALAAAPITVLAQVAGTNPGEIRARLRAAGYPVASDQQSVQSLVGGDLKAQIGVLNRILA	-0.0568
HMSSLTDNFVKALSYYLALSGKSKKEVADGIGIPPTTFSSWSNGKHLPDMDRLQNLATYLGAPVSEFFDFT	0.051
HMNKTVKIPNVSNLSREDAESVLKENGISVNSEVKQIESDTIEKGKVVKTDPSIGTSVKKGRSITIYVSSG	0.134
HMRVDLVQRLARHGLSPRQSAVAGGVLRGLDNGEISRQLYIAEQTVKDHLHEIYHRLGVHTRTELLIKVLG	-0.359
HMKNLKLVSNTDGIRIDSWLADEFEDYSRSYLRKLIDQDLVYVNGNKIKANYKLKKGDEISISIPEPE	-0.259
HMKSLLTARQLEVFEIARNKGYWTTPRKISLVELSKLLDISKSTLSVLLHSIEGKVMEEFYEEIRQ	0.0209
HMQMGLNEAYRVLHVSPDAPWREVQSAYKERMAKSHPDKVSHLGEELQEKAKELTVEINKAYNTIKRYKK	-0.0378
HMKQYSFEISKADFKKISENFNFKIINEINDSLIISLNDKNINLDELLIFFVERKIKVRSIENI	-1.06
HMLQADALADPVGWALRTLGFDLEAGTPERSAIQRSFRQSLIEAHPDHGGADDEAAQRIADITEARRILLA	-0.858
HMTAVNEHELMNQFKLSLGYANGDDPQTKLSTDEKNDFMRFKEWATAMTKDSKMGKDPDYLKKLAVQWTLK	0.102
